B1: Heat shock 70 kDa protein 4 (Homo sapiens), P34932 (parent)
chain: MSVVGIDLGFQSCYVAVARAGGIETIANEYSDRCTPACISFGPKNRSIGAAAKSQVISNAKNTVQGFKRFHGRAFSDPFVEAEKSNLAYDIVQLPTGLTGIKVTYMEEERNFTTEQVTAMLLSKLKETAESVLKKPVVDCVVSVPCFYTDAERRSVMDATQIAGLNCLRLMNETTAVALAYGIYKQDLPALEEKPRNVVFVDMGHSAYQVSVCAFNRGKLKVLATAFDTTLGGRKFDEVLVNHFCEEFGKKYKLDIKSKIRALLRLSQECEKLKKLMSANASDLPLSIECFMNDVDVSGTMNRGKFLEMCNDLLARVEPPLRSVLEQTKLKKEDIYAVEIVGGATRIPAVKEKISKFFGKELSTTLNADEAVTRGCALQCAILSPAFKVREFSITDVVPYPISLRWNSPAEEGSSDCEVFSKNHAAPFSKVLTFYRKEPFTLEAYYSSPQDLPYPDPAIAQFSVQKVTPQSDGSSSKVKVKVRVNVHGIFSVSSASLVEVHKSEENEEPMETDQNAKEEEKMQVDQEEPHVEEQQQQTPAENKAESEEMETSQAGSKDKKMDQPPQAKKAKVKTSTVDLPIENQLLWQIDREMLNLYIENEGKMIMQDKLEKERNDAKNAVEEYVYEMRDKLSGEYEKFVSEDDRNSFTLKLEDTENWLYEDGEDQPKQVYVDKLAELKNLGQPIKIRFQESEERPKLFEELGKQIQQYMKIISSFKNKEDQYDHLDAADMTKVEKSTNEAMEWMNNKLNLQNKQSLTMDPVVKSKEIEAKIKELTSTCSPIISKPKPKVEPPKEEQKNAEQNGPVDGQGDNPGPQAAEQGTDTAVPSDSDKKLPEMDID

Variants of: B1
Conditions: with hsp7c_human HSPA8, P11142
hsp7c_human HSPA8, P11142, sequence (P11142 whole entry, looked up): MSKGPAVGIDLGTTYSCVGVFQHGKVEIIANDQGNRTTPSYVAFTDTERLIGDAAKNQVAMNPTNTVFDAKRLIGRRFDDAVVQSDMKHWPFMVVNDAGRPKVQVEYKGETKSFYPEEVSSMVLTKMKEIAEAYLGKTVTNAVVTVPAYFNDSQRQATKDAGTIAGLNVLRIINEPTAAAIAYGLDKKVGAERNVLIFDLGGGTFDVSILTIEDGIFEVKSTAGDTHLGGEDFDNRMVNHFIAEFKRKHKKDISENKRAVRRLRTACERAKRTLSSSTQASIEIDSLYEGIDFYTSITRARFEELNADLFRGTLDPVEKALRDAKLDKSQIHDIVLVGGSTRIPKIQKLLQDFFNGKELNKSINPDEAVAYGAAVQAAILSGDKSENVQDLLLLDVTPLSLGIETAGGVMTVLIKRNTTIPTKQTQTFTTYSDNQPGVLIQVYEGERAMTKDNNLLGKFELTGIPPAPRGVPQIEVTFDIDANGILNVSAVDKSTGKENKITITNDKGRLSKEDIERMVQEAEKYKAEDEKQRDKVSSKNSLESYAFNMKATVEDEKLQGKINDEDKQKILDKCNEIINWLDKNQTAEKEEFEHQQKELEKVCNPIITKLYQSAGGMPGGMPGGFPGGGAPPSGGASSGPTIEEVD

Row | effect of a mutation on the interaction | Variant
1 | decreasing interaction | N619Y
2 | decreasing interaction | E622A

Reference: IntAct's records for PubMed 22990239
